Assay results taken from publication PMC8573869.
Where a chain is given by its changes, count along the chain named. Names may count otherwise.

B1: FLAG-tagged wild-type Rab32, Q13637 T39N (protein)
chain: MAGGGAGDPGLGAAAAPAPETREHLFKVLVIGELGVGKNSIIKRYVHQLFSQHYRATIGVDFALKVLNWDSRTLVRLQLWDIAGQERFGNMTRVYYKEAVGAFVVFDISRSSTFEAVLKWKSDLDSKVHLPNGSPIPAVLLANKCDQNKDSSQSPSQVDQFCKEHGFAGWFETSAKDNINIEEAARFLVEKILVNHQSFPNEENDVDKIKLDQETLRAENKSQCC
B2: FLAG-tagged wild-type Rab32, Q13637 Q85L (protein)
chain: B1 chain with N39T, Q85L

Tests used:
[1] = molecular target: T1, endogenous family with sequence similarity 134 member B (FAM134B), Q9H6L5; experiment: co-immunoprecipitation (anti-FLAG IP, densitometry); settings: chain shown with the change; MCF7 cells transfected for 48 h, crosslinking; n = 3; parent: est. 1.0; read off a plot
T1 chain: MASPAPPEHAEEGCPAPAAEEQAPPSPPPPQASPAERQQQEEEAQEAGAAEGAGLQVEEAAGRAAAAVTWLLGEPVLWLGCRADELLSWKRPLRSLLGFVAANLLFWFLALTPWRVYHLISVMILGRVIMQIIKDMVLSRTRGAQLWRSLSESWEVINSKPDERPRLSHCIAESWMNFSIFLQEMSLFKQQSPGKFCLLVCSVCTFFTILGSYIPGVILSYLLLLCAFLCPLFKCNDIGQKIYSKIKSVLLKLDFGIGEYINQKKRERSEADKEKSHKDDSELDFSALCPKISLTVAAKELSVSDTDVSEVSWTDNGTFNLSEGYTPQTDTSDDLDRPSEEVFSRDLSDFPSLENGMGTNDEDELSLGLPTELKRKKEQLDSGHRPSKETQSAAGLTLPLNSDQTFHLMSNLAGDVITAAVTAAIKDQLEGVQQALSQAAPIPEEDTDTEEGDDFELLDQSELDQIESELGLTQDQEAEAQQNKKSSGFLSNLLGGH

[2] = molecular target: T2, endogenous long reticulon-3 (RTN3L), O95197; experiment: as above; settings: chain shown with the change; MCF7 cells transfected for 48 h, crosslinking; n = 3; parent: est. 1.0; read off a plot
T2 chain: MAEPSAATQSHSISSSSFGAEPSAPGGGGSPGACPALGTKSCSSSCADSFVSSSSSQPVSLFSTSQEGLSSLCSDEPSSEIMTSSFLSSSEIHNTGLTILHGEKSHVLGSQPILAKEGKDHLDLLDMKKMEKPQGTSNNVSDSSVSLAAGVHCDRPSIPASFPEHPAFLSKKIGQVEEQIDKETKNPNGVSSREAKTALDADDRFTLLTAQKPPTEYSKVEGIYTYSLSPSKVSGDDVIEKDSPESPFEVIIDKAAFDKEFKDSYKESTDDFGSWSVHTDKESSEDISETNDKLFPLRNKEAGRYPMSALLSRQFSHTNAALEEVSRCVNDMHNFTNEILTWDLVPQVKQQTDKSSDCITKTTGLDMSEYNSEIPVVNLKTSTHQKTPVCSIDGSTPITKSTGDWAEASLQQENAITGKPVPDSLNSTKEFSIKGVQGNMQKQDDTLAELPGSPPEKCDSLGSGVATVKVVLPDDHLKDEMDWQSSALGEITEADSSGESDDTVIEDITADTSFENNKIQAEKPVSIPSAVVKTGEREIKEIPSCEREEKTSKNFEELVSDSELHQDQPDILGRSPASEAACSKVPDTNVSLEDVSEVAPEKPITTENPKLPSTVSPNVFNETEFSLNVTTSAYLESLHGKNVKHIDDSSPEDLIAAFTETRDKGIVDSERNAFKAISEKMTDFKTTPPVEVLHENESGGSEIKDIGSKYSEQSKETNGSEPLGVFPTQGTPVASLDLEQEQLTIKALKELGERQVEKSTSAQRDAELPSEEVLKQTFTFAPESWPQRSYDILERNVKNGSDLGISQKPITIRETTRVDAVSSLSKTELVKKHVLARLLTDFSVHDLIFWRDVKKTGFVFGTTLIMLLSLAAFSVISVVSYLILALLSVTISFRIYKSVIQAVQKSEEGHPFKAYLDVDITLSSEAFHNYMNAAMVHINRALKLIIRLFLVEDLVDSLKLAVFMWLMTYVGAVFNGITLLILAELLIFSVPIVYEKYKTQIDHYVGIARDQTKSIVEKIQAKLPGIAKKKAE

Binder | ratio to parent [1] | ratio to parent [2]
B1 | 0.75 | 1.3
B2 | 0.95 | 3.4
